{"source": "patent US20180134786A1", "about": "(TOHOKU UNIVERSITY, published 2018)", "key": {"[1]": {"target": "T1, human podocalyxin expressed on cancer cells (human, UniProt O00592 23-558)", "T1 construct": "Podocalyxin on cancer cells; also called hPODXL; PODXL", "T1 sequence": "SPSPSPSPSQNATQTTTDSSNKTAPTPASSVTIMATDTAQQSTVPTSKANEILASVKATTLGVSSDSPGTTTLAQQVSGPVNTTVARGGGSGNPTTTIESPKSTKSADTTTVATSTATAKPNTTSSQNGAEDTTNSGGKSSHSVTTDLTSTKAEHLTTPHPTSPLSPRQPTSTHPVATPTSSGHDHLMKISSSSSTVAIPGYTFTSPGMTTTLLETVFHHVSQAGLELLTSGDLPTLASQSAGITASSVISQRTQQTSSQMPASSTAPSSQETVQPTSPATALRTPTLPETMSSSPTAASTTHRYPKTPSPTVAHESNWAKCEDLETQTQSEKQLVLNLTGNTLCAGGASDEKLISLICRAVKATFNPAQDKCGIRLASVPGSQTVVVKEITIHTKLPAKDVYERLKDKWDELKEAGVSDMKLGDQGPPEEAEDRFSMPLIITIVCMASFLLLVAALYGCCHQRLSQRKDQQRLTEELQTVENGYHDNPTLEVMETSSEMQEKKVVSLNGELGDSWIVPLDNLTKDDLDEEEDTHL", "experiment": "immunohistochemistry on breast cancer tissue array, 5 µg/mL", "protocol": "Various paraffin sections were deparaffined in xylene and ethanol solutions. The resulting sections were subjected to antigen activation in an autoclave by using a citrate buffer having pH 6.0 (product of Dako). Endogenous peroxidase was inactivated with 3% H₂O₂. After blocking with SuperBlock (product of Thermo Fisher) at room temperature for 10 minutes, the primary antibody was reacted at a concentration of from 5 to 10 μg/mL at room temperature for one hour. After amplification using a LSAB kit (product of Dako), LSAB2 (product of Dako), or Envision+ (product of Dako), color was developed using DAB (product of Dako).\nPodocalyxin is known to be expressed highly in breast cancer. PcMab-6 and an anti-podocalyxin antibody (polyclonal antibody: product of R&D) were therefore reacted with a breast cancer tissue array (product of US Biomax) at a concentration of 5 μg/mL. […] Similarly, a difference in reactivity with breast cancer between PcMab-6 and PcMab-47 was investigated. […] It has therefore been confirmed that also in Immunohistochemistry, PcMab-6 is CasMab."}, "[2]": {"target": "T1, human podocalyxin expressed on cancer …", "experiment": "flow cytometry on LN229/hPODXL, CHO culture supernatant", "protocol": "A CRISPR/Cas plasmid of a glycosyltransferase (FUT-8) that transfers a core fucose was introduced into CHO-s cells (product of Thermo Scientific) and CHO-s-fut8-knock out cells were established. pCAG-hIgG1hG2b/PcMab-6HVH (G418)/pCAG-hIgCK/PcMab-6LVL (zeocin) (each 2.5 μg) or pCAG-hIgG1hG2b/PcMab-47HVH (G418)/pCAG-hIgCK/PcMab-47LVL (zeocin) (each 2.5 μg) were mixed and transfected into 1×10⁵ CHO-s/fut8-knock out cells (corresponding to 1 well of a 6-well plate) by the method of Lipofectamin LTX. After 24 hours, selection of transfected cells was started on a medium containing 500 μg/mL of Zeocin and 1 mg/mL of G418. The reactivity of the culture supernatant of the selected cells with the LN229 cells having therein forcibly expressed podocalyxin (LN229/hPODXL) was confirmed by flow cytometry."}}, "data": [{"binder": "PcMab-47 (antibody, mouse IgG1, kappa, Mouse monoclonal antibody; also called cancer-nonspecific anti-podocalyxin antibody) heavy: QVQLQQSAAELARPGASVKMSCKASGYTFTNYTIHWVKQRPGQGLEWIGFINPTSGYSDFNQKFKAKTTLTADKSSSTAHMQLTSLTSEDSAVYYCARLFAPAYWGQGTLVTVSAAKTTPPSVYPLAPGSAAQTNSMVTLGCLVKGYFPEPVTVTWNSGSLSSGVHTFPAVLQSDLYTLSSSVTVPSSTWPSETVTCNVAHPASSTKVDKKIVPRDCGCKPCICTVPEVSSVFIFPPKPKDVLTITLTPKVTCVVVDISKDDPEVQFSWFVDDVEVHTAQTQPREEQFNSTFRSVSELPIMHQDWLNGKEFKCRVNSAAFPAPIEKTISKTKGRPKAPQVYTIPPPKEQMAKDKVSLTCMITDFFPEDITVEWQWNGQPAENYKNTQPIMDTDGSYFVYSKLNVQKSNWEAGNTFTCSVLHEGLHNHHTEKSLSHSPGK light: QIVLTQSPAIMSASLGERVTMYCTASSSVSSSYLHWYQQKPGSSPKLWIYGTSNLASGVPARFSGSGSGTSYSLTISSMEAEDAATYYCHQYHRPPLTFGAGTKLELKRADAAPTVSIFPPSSEQLTSGGASVVCFLNNFYPKDINVKWKIDGSERQNGVLNSWTDQDSKDSTYSMSSTLTLTKDEYERHNSYTCEATHKTSTSPIVKSFNRNEC", "values": [{"measurement": "binding result", "setting": "[1]", "value": "binds"}]}, {"binder": "mouse-human chimeric PcMab-47 antibody (chPcMab-47) (antibody, VH/VL of PcMab-47 with human IgG1 CH1-hinge-CH2-CH3 and human kappa CL, expressed in CHO cells; The entries may include the signal peptide; also called chPcMa47) heavy: not shown light: QIVLTQSPAIMSASLGERVTMYCTASSSVSSSYLHWYQQKPGSSPKLWIYGTSNLASGVPARFSGSGSGTSYSLTISSMEAEDAATYYCHQYHRPPLTFGAGTKLELKRTSTVAAPSVFIFPPSDEQLKSGTASVVCLLNNFYPREAKVQWKVDNALQSGNSQESVTEQDSKDSTYSLSSTLTLSKADYEKHKVYACEVTHQGLSSPVTKSFNRGEC", "values": [{"measurement": "binding result", "setting": "[2]", "value": "binds"}]}]}
